Blank lines part the entries; values can stand above or below the molecule they belong to. *1 amine or outer side, *2 acyl side, *3 side chain or, on linkers, in order; H or OH if unused. Where a SMILES comes first, the peptide text is derived from it. Where no end group is shown, it is not given here. Side-chain parts run from the residue outwards. [ ]: non-standard residue; d: D form. The star is where a group is joined. C20 diacid = O=C(O)CCCCCCCCCCCCCCCCCCC(=O)*; C18 diacid = O=C(O)CCCCCCCCCCCCCCCCC(=O)*; C16 diacid = O=C(O)CCCCCCCCCCCCCCC(=O)*; γGlu = O=C(O)[C@H](CCC(=O)[*:2])N[*:1]; NMeI = CC[C@H](C)[C@H](NC)C(=O)O; Pentanoyl = CCCCC(=O)*; AEEA = NCCOCCOCC(=O)O; Aib = CC(C)(N)C(=O)O
How the values were obtained:
human LAD2 cells = format: cell-based
Experimental: LAD2 cells (20000 cells/well, 96-well plates and 10,000 cells/well in 384-well plates) were incubated with compounds for 30 min. The R-hexosaminidase released into the supernatants and in cell lysates was quantified using the fluorogenic substrate 4-methylumbelliferyl-N-acetyl-b-D-glucosaminide.
On the day of the assay, the lyophilized peptides were dissolved in DMSO and/or PBS 1× pH 7.4, to obtain stock solutions. The stock solutions were used to prepare working serial dilutions to have final concentrations in assay ranging from 50, 100 or 300 to 0.1 or 0.001 μM. Each peptide was tested in biological duplicates. When compounds were dissolved in DMSO, the final solvent concentration in assay was 0.5% (v/v).
The percentage of degranulation, expressed as % of R-hexosaminidase release, was calculated by dividing the fluorescence signal of the supernatant by the sum of the signals from the supernatant and cell pellet (lysed with Triton X-100, final 1%) and multiplying by 100.
Dose-response curves were generated by plotting the % of R-hexosaminidase release versus total release of cells treated with triton (y-axis) against the concentrations of peptides tested (x-axis). The Mast Cell Degranulation (MCD) EC50 values and standard errors were calculated using XLfit 5.5.0.5 based on the following equation:
4 Parameter Sigmoidal Model: f=(A+((B−A)/(1+((C/x)^D))))
where A=Emin, B=Emax, C=EC50 and D=slope

[1] = molecular target: T1, CRF1R (corticotropin-releasing factor receptor 1), on the CRF1R-overexpression CHO-K1 cell line clone 2 (UniProt P34998 24-415, limits assumed); assay: cell-based or functional assay
T1 sequence (looked up): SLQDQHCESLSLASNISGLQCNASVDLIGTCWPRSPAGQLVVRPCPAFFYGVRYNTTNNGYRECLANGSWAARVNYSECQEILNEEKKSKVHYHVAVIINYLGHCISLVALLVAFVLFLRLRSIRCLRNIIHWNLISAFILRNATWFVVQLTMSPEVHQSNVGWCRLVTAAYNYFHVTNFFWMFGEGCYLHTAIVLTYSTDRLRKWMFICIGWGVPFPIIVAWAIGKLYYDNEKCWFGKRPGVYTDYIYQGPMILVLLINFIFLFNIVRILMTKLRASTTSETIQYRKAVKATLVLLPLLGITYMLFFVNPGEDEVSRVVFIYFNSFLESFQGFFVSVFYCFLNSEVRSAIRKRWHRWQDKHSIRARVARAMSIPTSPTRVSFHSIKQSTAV

EC50 (human LAD2 cells): 38.5 µM
Molecule: CC[C@H](C)[C@H](NC(C)=O)C(=O)N[C@H](C(=O)N[C@@H](CC(C)C)C(=O)N[C@@H](CO)C(=O)N[C@@H](CC(C)C)C(=O)N[C@@H](CC(=O)O)C(=O)N[C@@H](C(=O)N1CCC[C@H]1C(=O)N[C@H](C(=O)N[C@@H](CCCCN)C(=O)N[C@@H](CC(C)C)C(=O)N[C@@H](CCCCNC(=O)CC[C@H](NC(=O)CCCCCCCCCCCCCCC(=O)O)C(=O)O)C(=O)N[C@@H](CCCCN)C(=O)N[C@H](C(=O)N[C@@H](CC(C)C)C(=O)N[C@@H](CC(C)C)C(=O)N[C@@H](CCC(=O)O)C(=O)N[C@@H](CCC(N)=O)C(=O)N[C@@H](CCC(=O)O)C(=O)N[C@@H](CCCCN)C(=O)N[C@@H](CCC(N)=O)C(=O)N[C@@H](CCCCN)C(=O)N[C@@H](CCCCN)C(=O)N[C@@H](CCC(N)=O)C(=O)N[C@@H](CCCNC(=N)N)C(=O)N[C@@H](CCC(=O)O)C(=O)N[C@@H](CCC(N)=O)C(=O)N[C@@H](C)C(=O)N[C@@H](CCC(=O)O)C(=O)N[C@H](C(=O)N[C@@H](CC(N)=O)C(=O)N[C@@H](CCC(=O)O)C(=O)N[C@@H](CCC(N)=O)C(=O)N[C@H](C(=O)N[C@@H](CC(C)C)C(=O)N[C@@H](C)C(=O)N[C@@H](CCC(N)=O)C(=O)N[C@H](C(N)=O)C(C)C)[C@@H](C)CC)[C@@H](C)O)[C@@H](C)CC)[C@@H](C)CC)C(C)C)C(C)C [56 (comp)] (Ac-IVLSLD[dV]PIKLK([γGlu-C16 diacid])KILLEQEKQKKQREQAETNEQILAQV-NH2)

EC50 (human LAD2 cells): 50.4 µM
Molecule: CC[C@H](C)[C@H](N)C(=O)N[C@H](C(=O)N[C@@H](CC(C)C)C(=O)N[C@@H](CO)C(=O)N[C@@H](CC(C)C)C(=O)N[C@@H](CC(=O)O)C(=O)N[C@H](C(=O)N1CCC[C@H]1C(=O)N[C@H](C(=O)N[C@@H](CCCCN)C(=O)N[C@@H](CC(C)C)C(=O)N[C@@H](CCCCNC(=O)COCCOCCNC(=O)COCCOCCNC(=O)CC[C@H](NC(=O)CCCCCCCCCCCCCCCCC(=O)O)C(=O)O)C(=O)N[C@@H](CCCCN)C(=O)N[C@H](C(=O)N[C@@H](CC(C)C)C(=O)N[C@@H](CC(C)C)C(=O)N[C@@H](CCC(=O)O)C(=O)N[C@@H](CCC(N)=O)C(=O)N[C@@H](CCC(=O)O)C(=O)N[C@@H](CCCCN)C(=O)N[C@@H](CCC(N)=O)C(=O)N[C@@H](CCCCN)C(=O)N[C@@H](CCCCN)C(=O)N[C@@H](CCC(N)=O)C(=O)N[C@@H](CCCNC(=N)N)C(=O)N[C@@H](CCC(=O)O)C(=O)N[C@@H](CCC(N)=O)C(=O)N[C@@H](C)C(=O)N[C@@H](CCC(=O)O)C(=O)N[C@H](C(=O)N[C@@H](CC(N)=O)C(=O)N[C@@H](CCCCN)C(=O)N[C@@H](CCC(N)=O)C(=O)N[C@H](C(=O)N[C@@H](CC(C)C)C(=O)N[C@@H](C)C(=O)N[C@@H](CCC(N)=O)C(=O)N[C@H](C(N)=O)C(C)C)[C@@H](C)CC)[C@@H](C)O)[C@@H](C)CC)[C@@H](C)CC)C(C)C)C(C)C [149 (comp)] (H-IVLSLDVPIKLK([AEEA-AEEA-γGlu-C18 diacid])KILLEQEKQKKQREQAETNKQILAQV-NH2)

EC50 [nM] (cAMP, CRF1R-overexpression CHO-K1 cells) [1]: > 250 nM
Emax (% I) (cAMP, 100% = Sauvagine at 100 nM) [1]: 0 % I
B1: peptide of SEQ ID NO: 239 (peptide)
peptide: [NMeI]VLSLD[dV]PIKLK([AEEA-AEEA-γGlu-C20 diacid])KILLEQEKQK[Aib]QREQAETN[Aib]QILAQV-NH2
modifications: N-terminus assumed
SMILES: CC[C@H](C)[C@H](NC)C(=O)N[C@H](C(=O)N[C@@H](CC(C)C)C(=O)N[C@@H](CO)C(=O)N[C@@H](CC(C)C)C(=O)N[C@@H](CC(=O)O)C(=O)N[C@@H](C(=O)N1CCC[C@H]1C(=O)N[C@H](C(=O)N[C@@H](CCCCN)C(=O)N[C@@H](CC(C)C)C(=O)N[C@@H](CCCCNC(=O)COCCOCCNC(=O)COCCOCCNC(=O)CC[C@H](NC(=O)CCCCCCCCCCCCCCCCCCC(=O)O)C(=O)O)C(=O)N[C@@H](CCCCN)C(=O)N[C@H](C(=O)N[C@@H](CC(C)C)C(=O)N[C@@H](CC(C)C)C(=O)N[C@@H](CCC(=O)O)C(=O)N[C@@H](CCC(N)=O)C(=O)N[C@@H](CCC(=O)O)C(=O)N[C@@H](CCCCN)C(=O)N[C@@H](CCC(N)=O)C(=O)N[C@@H](CCCCN)C(=O)NC(C)(C)C(=O)N[C@@H](CCC(N)=O)C(=O)N[C@@H](CCCNC(=N)N)C(=O)N[C@@H](CCC(=O)O)C(=O)N[C@@H](CCC(N)=O)C(=O)N[C@@H](C)C(=O)N[C@@H](CCC(=O)O)C(=O)N[C@H](C(=O)N[C@@H](CC(N)=O)C(=O)NC(C)(C)C(=O)N[C@@H](CCC(N)=O)C(=O)N[C@H](C(=O)N[C@@H](CC(C)C)C(=O)N[C@@H](C)C(=O)N[C@@H](CCC(N)=O)C(=O)N[C@H](C(N)=O)C(C)C)[C@@H](C)CC)[C@@H](C)O)[C@@H](C)CC)[C@@H](C)CC)C(C)C)C(C)C

EC50 [nM] (cAMP, CRF1R-overexpression CHO-K1 cells) [1]: 203 nM
Emax (% I) (cAMP, 100% = Sauvagine at 100 nM) [1]: 43 % I
B2: peptide of SEQ ID NO: 229 (peptide)
peptide: [NMeI]VLSLD[dV]PIGLK([γGlu-C20 diacid])KILLEQEKQKKQREQAETN[Aib]QILAQV-NH2
modifications: N-terminus assumed
SMILES: CC[C@H](C)[C@H](NC)C(=O)N[C@H](C(=O)N[C@@H](CC(C)C)C(=O)N[C@@H](CO)C(=O)N[C@@H](CC(C)C)C(=O)N[C@@H](CC(=O)O)C(=O)N[C@@H](C(=O)N1CCC[C@H]1C(=O)N[C@H](C(=O)NCC(=O)N[C@@H](CC(C)C)C(=O)N[C@@H](CCCCNC(=O)CC[C@H](NC(=O)CCCCCCCCCCCCCCCCCCC(=O)O)C(=O)O)C(=O)N[C@@H](CCCCN)C(=O)N[C@H](C(=O)N[C@@H](CC(C)C)C(=O)N[C@@H](CC(C)C)C(=O)N[C@@H](CCC(=O)O)C(=O)N[C@@H](CCC(N)=O)C(=O)N[C@@H](CCC(=O)O)C(=O)N[C@@H](CCCCN)C(=O)N[C@@H](CCC(N)=O)C(=O)N[C@@H](CCCCN)C(=O)N[C@@H](CCCCN)C(=O)N[C@@H](CCC(N)=O)C(=O)N[C@@H](CCCNC(=N)N)C(=O)N[C@@H](CCC(=O)O)C(=O)N[C@@H](CCC(N)=O)C(=O)N[C@@H](C)C(=O)N[C@@H](CCC(=O)O)C(=O)N[C@H](C(=O)N[C@@H](CC(N)=O)C(=O)NC(C)(C)C(=O)N[C@@H](CCC(N)=O)C(=O)N[C@H](C(=O)N[C@@H](CC(C)C)C(=O)N[C@@H](C)C(=O)N[C@@H](CCC(N)=O)C(=O)N[C@H](C(N)=O)C(C)C)[C@@H](C)CC)[C@@H](C)O)[C@@H](C)CC)[C@@H](C)CC)C(C)C)C(C)C

EC50 [nM] (cAMP, CRF1R-overexpression CHO-K1 cells) [1]: 90.5 nM
Emax (% I) (cAMP, 100% = Sauvagine at 100 nM) [1]: 62 % I
B3: peptide of SEQ ID NO: 228 (peptide)
peptide: Pentanoyl-VLSLD[dV]PIGLK([γGlu-C20 diacid])KILLEQEKQKKQREQAETN[Aib]QILAQV-NH2
SMILES: CCCCC(=O)N[C@H](C(=O)N[C@@H](CC(C)C)C(=O)N[C@@H](CO)C(=O)N[C@@H](CC(C)C)C(=O)N[C@@H](CC(=O)O)C(=O)N[C@@H](C(=O)N1CCC[C@H]1C(=O)N[C@H](C(=O)NCC(=O)N[C@@H](CC(C)C)C(=O)N[C@@H](CCCCNC(=O)CC[C@H](NC(=O)CCCCCCCCCCCCCCCCCCC(=O)O)C(=O)O)C(=O)N[C@@H](CCCCN)C(=O)N[C@H](C(=O)N[C@@H](CC(C)C)C(=O)N[C@@H](CC(C)C)C(=O)N[C@@H](CCC(=O)O)C(=O)N[C@@H](CCC(N)=O)C(=O)N[C@@H](CCC(=O)O)C(=O)N[C@@H](CCCCN)C(=O)N[C@@H](CCC(N)=O)C(=O)N[C@@H](CCCCN)C(=O)N[C@@H](CCCCN)C(=O)N[C@@H](CCC(N)=O)C(=O)N[C@@H](CCCNC(=N)N)C(=O)N[C@@H](CCC(=O)O)C(=O)N[C@@H](CCC(N)=O)C(=O)N[C@@H](C)C(=O)N[C@@H](CCC(=O)O)C(=O)N[C@H](C(=O)N[C@@H](CC(N)=O)C(=O)NC(C)(C)C(=O)N[C@@H](CCC(N)=O)C(=O)N[C@H](C(=O)N[C@@H](CC(C)C)C(=O)N[C@@H](C)C(=O)N[C@@H](CCC(N)=O)C(=O)N[C@H](C(N)=O)C(C)C)[C@@H](C)CC)[C@@H](C)O)[C@@H](C)CC)[C@@H](C)CC)C(C)C)C(C)C

Source: US20260001928A1 (CORTERIA PHARMACEUTICALS, priority 2022, published 2026)
